Assay results: US7037663B2, “Human zona pellucida protein 3 and uses thereof” (Eastern Virginia Medical School, priority 1998, dated 2006)

Legend:
[1] = test system: sperm-zona pellucida binding; test: Hemizona assay (HZA), competitive inhibition of sperm-zona binding, first series; type: cell-based, human
Excerpt: An inverted, phase-contrast microscope equipped with a micromanipulation system was routinely employed to cut the oocyte into halves to obtain matching hemizonae. Oocytes used in the experiments were obtained from surgically-removed ovarian tissue or discarded from IVF therapy under approval of the Institutional Review Board at Eastern Virginia Medical School. The hemizonae were washed in PBS to completely deplete the cytoplasm. Sperm samples were from healthy fertile donors. A swim-up procedure was applied to obtain motile sperm, which were then adjusted to 0.5 million/ml in Human Tubal Fluid (HTF) supplemented with 0.3% Human Serum Albumin (HSA) for hemizona assay. In one Petri dish, one droplet of 100 ul of sperm suspension was placed as a control. Another droplet of sperm was pre-treated with rhZP3. One hemizona was placed into the control droplet and the matching hemizona was placed in the sperm droplet treated with rhZP3. Five pairs of hemizona were used for each experiment. All dishes were incubated at 37° C., 5% CO2 for 4 hours. Each hemizona was removed and rinsed 15 times in PBS, and transferred to the counting dish. The number of sperm bound to the surface of each hemizona was counted under phase microscopy. The HZI was calculated to evaluate rhZP3-binding activity (competitive inhibition) as follows: number of sperm bound for treatment/number of sperm bound for control×100.

human sperm [2] = test: Acrosome reaction of capacitated sperm by FITC/PSA with Hoechst 33258 viability stain, first series; type: cell-based
Protocol: The purified rhZP3 was also applied to test its activity to induce human sperm acrosome reaction. The motile sperm obtained by swim-up procedure were allowed to capacitate in HTF/0.5% HSA for four hours at 37° C. in 5% CO2 in huminified air. The motile sperm concentration used to detect acrosome reaction was set at 2 million/ml. A series of 100 ul of capacitated sperm aliquots with different inducers were prepared in Eppendorf vials and cultured in the incubator in 95% air, 5% CO2, at 37° C. for 30 minutes. The test was conducted as follows: positive control: calcium ionophore A23187 (Sigma) at 5 μM; negative controls: 1) sperm culture medium alone, and 2) protein isolated from the culture media of non-transfected PA-1 cells (NT); test: rhZP3. Triple slides were made for each assay. Hoechst 33258 stain was used for determination of sperm viability. Fluorescein isothiocyanate conjugated Pisum sativum agglutinin (FITC/PSA) (Sigma) staining technique was employed to evaluate the acrosome reaction (Cross et al, 1986). Blind reading was required for evaluation and at least 100˜200 cells from 5 random fields were evaluated per spot on the slide. […] The results were expressed as percentage of acrosome-reacted spermatozoa in the total population counted (Cross, 1986).
In some experiments, Solubilized zona pellucida were used as control to test its function to induce sperm acrosome reaction. The solubilized zona pellucida were prepared according to Franken et al (1996). Ooplasma was removed using a small glass micropipette. A vigorous pipetting action would break their zona causing ooplasma to be spilled into surrounding medium. The chosen amount of zonae was transferred into an eppendorf tube and was centrifuged for 15 minutes at 300×g. Using a steromicroscope, the media were removed with pipette, making sure not to disturb zona. The final result was to remove maximum medium. A chosen volume (depending on the zona concentration needed) of 10 mM HCl was added. Under the microscopic vision, zona/HCl was pipetted up and down until all zona were dissolved. Then 10 mM NaOH of equal volume as the HCl was added and mixed well to obtain the stock zona solution.

human sperm [3] = test: Acrosome reaction of live sperm by FITC-PSA, second series; type: cell-based
Protocol: Determination of the acrosome reaction—The proportion of live acrosome-reacted spermatozoa incubated under capacitating conditions was determined with the fluorescent probe fluorescein isothiocyanate-labeled Pisum Sativum Agglutinin (FITC-PSA, Sigma) after staining with a supravital stain (Hoechst 33258, Sigma) following established techniques (12,13). At least 200 sperm per sample were evaluated in duplicate at 600× magnification using an epifluorescence microscope equipped with phase-contrast optics (Optiphot; Nikon, Melville, N.Y.). Slides were coded and read in a blind fashion.
A calcium ionophore agent (A23187, Sigma) tested at 5 μM and human acid solubilized zona pellucida tested at a final concentration of 4 zona/10 μl were used as positive controls (20). In further experiments, the acrosomal status was assessed by transmission electron microscopy. Spermatozoa were fixed by mixing sperm suspensions with equal volumes of 2% (v/v) glutaraldehyde (in 3 mM CaCl2 and 0.1 M sodium cacodylate); thereafter, samples were dehydrated twice and prepared for thin sectioning using previously published procedures. Ultrastructural examination was performed with a transmission electron microscope (Jeol JEM-1200 EX II, Peabody, Mass.).
Experiment 2: Characterization of the acrosome reaction inducing activity of the rhZP3 in dose- and sperm capacitation-dependency studies—Motile sperm fractions from 29 ejaculates of 11 different donors were incubated under capacitating conditions for 3 hours and assayed for acrosome reaction using FITC-PSA. Following swim-up, sperm aliquots were pre-incubated for 30 minutes with rhZP3 (30 ng/ml), A23187 (positive control), culture medium from non-transfected PA-cells (NT) or sperm culture medium (negative controls). This was the initially selected dose of rhZP3 to be tested as it had proven to effect significant inhibition of sperm-zona binding in the HZA.
The dose-dependent effect of rhZP3 on acrosome reaction was examined in the swim-up fractions obtained from four different donors. The fractions were capacitated for 3 hours and exposed for 30 min to rhZP3 at final concentrations of 0, 7.5, 15, 30, 60, 120, 240, 480, 960 and 1920 ng/ml. The capacitation-dependency of the acrosome reaction-inducing activity of rhZP3 was assessed in the swim-up fractions of four ejaculates from four different donors. Capacitation times included: 0 (immediately post-swim-up), 1, 4, 8, 12 and 24 hours. After the capacitation period, rhZP3 was added to the sperm suspension at a final concentration of 30 ng/ml.
In another set of experiments, three different ejaculates were used to compare the effects of the rhZP3 (tested at 500 ng/ml) with those of solubilized zonae pellucidae and the calcium ionophore. Further, the induction of the acrosome reaction was assessed in parallel with FITC-PSA and transmission electron microscopy. The goal of these studies was to compare the morphological features of the acrosome reaction between agonists and also between the agonist-induced and basal exocytosis rates.

[4] = test system: sperm-zona pellucida binding; conditions: Dong et al 2000; cited from earlier work
human sperm [5] = conditions: Dong et al 2000; cited from earlier work

B1: rhZP3: recombinant human zona pellucida protein 3 with six-histidine tail, expressed in human ovarian PA-1 cells; secreted glycoprotein of approximately 65 Kd (protein)
chain: QPLWLLQGGASHPETSVQPVLVECQEATLMVMVSKDLFGTGKLIRAADLTLGPEACEPLVSMDTEDVVRFEVGLHECGNSMQVTDDALVYSTFLLHDPRPVGNLSIVRTNRAEIPIECRYPRQGNVSSQAILPTWLPFRTTVFSEEKLTFSLRLMEENWNAEKRSPTFHLGDAAHLQAEIHTGSHVPLRLFVDHCVATPTPDQNASPYHTIVDFHGCLVDGLTDASSAFKVPRPGPDTLQFTVDVFHFANDSRNMIYITCHLKVTLAEQDPDELNKACSFSKPSNSWFPVEGSADICQCCNKGDCGTPSHSRRQPHVMSQWSRSASRNHHHHHH
- inhibition of sperm-ZP binding ([1]; 30 ng/ml, sperm pre-incubated 30 min): approximately 60%
- HZI (Mean ± SEM) ([1]; test reagent 30 ng/ml versus control 30 ng/ml NT): 44.5 (3.6)
- HZI (Mean ± SEM) ([1]; test reagent 30 ng/ml versus control HTF/0.5% HSA, 30 min pre-incubation, 4 h with hemizona): 43.6 (3.3)
- increase of the percentage of acrosome-reacted sperm from control conditions (human sperm [2]; 30 ng/ml, 30 minutes pre-incubation): 150%
- % acrosome reacted-sperm (human sperm [2]; NT 30 ng/ml, calcium ionophore 5 μM, rhZP3 30 ng/ml, solubilized zona 0.5 ZP/μl, 4 h capacitation, 30 min, mean (± SEM)): 18.3%
- concentration of highest acrosome reaction-inducing activity (human sperm [3]): 0.5 to 2 µg/mL
- concentration range of highest stimulation (maximal effects) of acrosome reaction (human sperm [3]): 500-2,000 ng/ml
- potency relative to CHO cell product (human sperm [3]; 0.5-2 μg/ml versus 15-20 μg/ml): at least 10 times
- minimally effective dose, induction of the acrosome reaction (human sperm [3]; 3 h capacitation, 30 min exposure): 30 ng/mL
- highest stimulation of acrosome reaction, increase from baseline conditions (human sperm [3]; in the range of 500-2,000 ng/ml): approximately 210%
- capacitation time of maximal stimulation of acrosome reaction (human sperm [3]; rhZP3 30 ng/ml): 8 to 10 h
- live, acrosome reacted sperm (human sperm [3]; rhZP3 30 ng/ml, A23187 5 μM, 3 h capacitation, 30 min exposure): 19±4.1%
- induction of the acrosome reaction (human sperm [3]; rhZP3 500 ng/ml, solubilized zona 4 zona/10 μl, A23187 5 μM): 28.2±5.6%
- sperm motion parameters, treatment versus control (sperm): not significantly different
- range of maximal effect, ligand activity [4]: 30-1,000 ng/ml
- range of maximal effect, acrosome reaction-inducing activity (human sperm [5]): 30-1,000 ng/ml
